{
  "source": "patent US7531333B2",
  "about": "“Process for producing isoprenoid compounds by microorganisms and a method for screening compounds with antibiotic or weeding activity” (Kyowa Hakko Kogyo Co., Ltd., priority 1998, dated 2009)",
  "proteins": {"B1": {"name": "1-deoxy-D-xylulose 5-phosphate reductoisomerase (Escherichia coli K-12) (protein)", "chain": "MKQLTILGSTGSIGCSTLDVVRHNPEHFRVVALVAGKNVTRMVEQCLEFSPRYAVMDDEASAKLLKTMLQQQGSRTEVLSGQQAACDMAALEDVDQVMAAIVGAAGLLPTLAAIRAGKTILLANKESLVTCGRLFMDAVKQSKAQLLPVDSEHNAIFQSLPQPIQHNLGYADLEQNGVVSILLTGSGGPFRETPLRDLATMTPDQACRHPNWSMGRKISVDSATMMNKGLEYIEARWLFNASASQMEVLIHPQSVIHSMVRYQDGSVLAQLGEPDMVRQLPTPWAWPNRVNSGVKPLDFCKLSALTFAAPDYDRYPCLKLAMEAFEQGQAATTALNAANEITVAAFLAQQIRFTDIAALNLSVLEKMDMREPQCVDDVLSVDANAREVARKEVMRLAS", "notes": "made in house; host or cells: E. coli M15/pREP4"}},
  "substrate": "CC(=O)[C@@H](O)[C@H](O)COP(=O)(O)O",
  "experiment": "Enzymatic activity of yaeM gene product (NADPH decrease, absorbance at 340 nm)",
  "assay_type": "biochemical, E. coli",
  "details": "other: in the presence of MnCl2; pH 7.5; 37.0 °C",
  "description": "0.3 mol/l of 1-deoxy-D-xylulose 5-phosphate (final concentration) synthesized as described above was added to 1 ml of a reaction solution containing 100 mol/l Tris-hydrochloric acid (pH 7.5), 1 mol/l MmCl2, 0.3 mol/l NADPH and yaeM gene product obtained in Example 8 (2) ? , and then incubated at 37° C.\nThe enzymological characteristics of 1-deoxy-D-xylulose 5-phosphate reductoisomerase were examined using 1 ml of the reaction system as described in Example 8 (2) ? . Here, 1 unit is defined as the activity to oxidize 1 mmol of NADPH per a minute.",
  "data": [
    {"protein": "B1", "values": [
      {"measurement": "Km", "value": 249, "unit": "µM"}
    ]}
  ]
}
